This is an account of results in US20240141042A1 (INNATE PHARMA, published 2024).

For assay [1], the target named is T1, NKp46 mutant 6 (human, UniProt O76036 22-304).
T1 construct: Expressed in transfected HEK293T cells
T1 chain: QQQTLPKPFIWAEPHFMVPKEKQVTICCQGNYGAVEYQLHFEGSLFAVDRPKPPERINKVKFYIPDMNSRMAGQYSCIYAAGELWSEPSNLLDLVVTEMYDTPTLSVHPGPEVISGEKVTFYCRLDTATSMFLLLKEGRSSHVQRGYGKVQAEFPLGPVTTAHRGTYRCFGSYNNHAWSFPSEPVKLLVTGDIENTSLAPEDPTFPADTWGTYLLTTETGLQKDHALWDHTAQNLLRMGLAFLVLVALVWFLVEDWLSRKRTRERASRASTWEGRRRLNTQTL
Nature of the assay: flow cytometry on HEK293T cells transfected with NKp46 mutant 6 (R101A, V102A), antibody titrated 0.001-1 ug/ml.

Assay [2] addresses T2, NKp46 mutant 2 (human, UniProt O76036 22-304).
T2 construct: Expressed in transfected HEK293T cells
T2 chain: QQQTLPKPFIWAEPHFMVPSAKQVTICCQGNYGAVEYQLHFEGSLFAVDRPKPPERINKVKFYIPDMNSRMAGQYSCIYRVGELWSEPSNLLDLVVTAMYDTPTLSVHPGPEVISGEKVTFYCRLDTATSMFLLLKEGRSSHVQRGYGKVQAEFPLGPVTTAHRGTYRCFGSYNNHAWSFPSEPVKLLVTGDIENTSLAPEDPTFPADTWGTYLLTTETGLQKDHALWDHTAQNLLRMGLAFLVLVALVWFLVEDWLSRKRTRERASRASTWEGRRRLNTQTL
As to the kind of experiment: flow cytometry on HEK293T cells transfected with NKp46 mutant 2 (K41S, E42A, E119A), antibody titrated 0.001-1 ug/ml. Here is the method:
All the anti-NKp46 antibodies were tested for their binding to each mutant by flow cytometry. A first experiment was performed to determine antibodies that lose their binding to one or several mutants at one concentration (10 μg/ml).
A general note: A flow cytometer gives signals particle by particle.

Assay [3] addresses T3, NKp46 mutant Supp7 (human, UniProt O76036 22-304).
T3 construct: Expressed in transfected HEK293T cells; also called supplementary mutant Supp7
T3 chain: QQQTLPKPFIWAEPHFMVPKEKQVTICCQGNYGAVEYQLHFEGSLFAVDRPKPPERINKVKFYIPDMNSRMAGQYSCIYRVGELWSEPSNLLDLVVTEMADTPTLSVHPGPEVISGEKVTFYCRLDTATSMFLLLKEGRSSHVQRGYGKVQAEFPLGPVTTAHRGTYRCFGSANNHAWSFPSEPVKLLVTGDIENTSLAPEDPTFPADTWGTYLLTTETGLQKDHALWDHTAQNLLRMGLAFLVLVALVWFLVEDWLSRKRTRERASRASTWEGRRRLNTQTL
Nature of the assay: flow cytometry on HEK293T cells transfected with NKp46 mutant Supp7 (Y121A, Y194A; printed 'Mutant S7'), antibody titrated 0.001-1 ug/ml.

For assay [4], the target named is T4, Human NKp46 recombinant proteins (human, UniProt O76036 22-258).
T4 construct: also called recombinant human NKp46 proteins
Nature of the assay: SPR, antibody captured on Protein-A chip, human NKp46 injected, 1:1 kinetic model.

Assay [5] concerns the target T5, human FcRn (Example 10) (human, UniProt P55899 24-297; P61769 21-119, limits assumed).
T5 construct: Construct not described; Beta-2-microglobulin is not mentioned; also called recombinant FcRn proteins
As to the kind of experiment: SPR, FcRn immobilized on CM5, SCK/Two state reaction. As to the method: SPR measurements were performed on a Biacore T100 apparatus (Biacore GE Healthcare) at 25° C. In all Biacore experiments Acetate Buffer (50 mM Acetate pH5.6, 150 mM NaCl, 0.1% surfactant p20) and HBS-EP+ (Biacore GE Healthcare) served as running buffer and regeneration buffer respectively. Sensorgrams were analyzed with Biacore T100 Evaluation software. Recombinant mouse FcRn was purchase from R&D Systems.
Recombinant FcRn proteins were immobilized covalently to carboxyl groups in the dextran layer on a Sensor Chip CM5. The chip surface was activated with EDC/NHS (N-ethyl-N′-(3-dimethylaminopropyl) carbodiimidehydrochloride and N-hydroxysuccinimide (Biacore GE Healthcare)). FcRn proteins were diluted to 10 μg/ml in coupling buffer (10 mM acetate, pH 5.6) and injected until the appropriate immobilization level was reached (i.e. 2500 RU). Deactivation of the remaining activated groups was performed using 100 mM ethanolamine pH 8 (Biacore GE Healthcare).

Assay [6] addresses T4, Human NKp46 recombinant proteins. Nature of the assay: SPR, bispecific captured on Protein-A chip, human NKp46 injected, 1:1 kinetic model. As to the method: SPR measurements were performed on a Biacore T100 apparatus (Biacore GE Healthcare) at 25° C. In all Biacore experiments HBS-EP+(Biacore GE Healthcare) and NaOH 10 mM served as running buffer and regeneration buffer respectively. Sensorgrams were analyzed with Biacore T100 Evaluation software. Protein-A was purchase from (GE Healthcare). Human NKp46 recombinant proteins were cloned, produced and purified at Innate Pharma.
Protein-A proteins were immobilized covalently to carboxyl groups in the dextran layer on a Sensor Chip CM5. The chip surface was activated with EDC/NHS (N-ethyl-N′-(3-dimethylaminopropyl) carbodiimidehydrochloride and N-hydroxysuccinimide (Biacore GE Healthcare)). Protein-A was diluted to 10 μg/ml in coupling buffer (10 mM acetate, pH 5.6) and injected until the appropriate immobilization level was reached (i.e. 2000 RU). Deactivation of the remaining activated groups was performed using 100 mM ethanolamine pH 8 (Biacore GE Healthcare).
Monovalent affinity study was done following a regular Capture-Kinetic protocol recommended by the manufacturer (Biacore GE Healthcare kinetic wizard). Seven serial dilutions of human NKp46 recombinant proteins, ranging from 6.25 to 400 nM were sequentially injected over the captured Bi-Specific antibodies and allowed to dissociate for 10 min before regeneration. The entire sensorgram sets were fitted using the 1:1 kinetic binding model.
(In general: In SPR one partner is held on a chip, and binding of the other changes the refractive index at the surface.)

For assay [7], the target named is T5, human FcRn (Example 10). As to the kind of experiment: SPR, FcRn immobilized on CM5, Steady State.
Assay [8] has as its target T6, NKp46 mutant Supp8 (human, UniProt O76036 22-304).
T6 construct: Expressed in transfected HEK293T cells; also called supplementary mutant Supp8
T6 chain: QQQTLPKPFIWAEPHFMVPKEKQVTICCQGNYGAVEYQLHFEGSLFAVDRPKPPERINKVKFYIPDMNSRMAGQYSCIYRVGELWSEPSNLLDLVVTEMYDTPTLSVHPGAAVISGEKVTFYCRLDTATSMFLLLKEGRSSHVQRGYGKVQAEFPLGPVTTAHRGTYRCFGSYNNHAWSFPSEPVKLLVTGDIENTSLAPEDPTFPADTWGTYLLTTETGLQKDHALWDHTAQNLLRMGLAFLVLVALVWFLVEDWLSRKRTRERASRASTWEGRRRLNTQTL
As to the kind of experiment: flow cytometry on HEK293T cells transfected with NKp46 mutant Supp8 (P132A, E133A; printed 'Mutant S8'), antibody titrated 0.001-1 ug/ml.

For assay [9], the target named is T7, human NKp46 expressed at the cell surface (human, UniProt O76036 22-304).
T7 construct: Wild-type NKp46 on cells (transfected cell lines or NK cells); also called cell line expressing the human NKp46 construct; NKp46 cell line
Nature of the assay: flow cytometry on HEK293T cells transfected with wild-type NKp46, antibody titrated 0.001-1 ug/ml.

Assay [10] concerns the target T8, NKp46 mutant 19 (human, UniProt O76036 22-304).
T8 construct: Expressed in transfected HEK293T cells
T8 chain: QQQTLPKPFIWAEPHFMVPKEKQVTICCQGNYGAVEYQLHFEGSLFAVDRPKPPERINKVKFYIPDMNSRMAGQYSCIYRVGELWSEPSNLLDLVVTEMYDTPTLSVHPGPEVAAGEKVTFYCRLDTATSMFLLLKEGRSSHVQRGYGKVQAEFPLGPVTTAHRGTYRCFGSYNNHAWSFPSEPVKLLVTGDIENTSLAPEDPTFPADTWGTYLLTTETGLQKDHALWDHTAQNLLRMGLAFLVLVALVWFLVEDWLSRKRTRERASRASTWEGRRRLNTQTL
Nature of the assay: flow cytometry on HEK293T cells transfected with NKp46 mutant 19 (I135A, S136A), antibody titrated 0.001-1 ug/ml.

T5 sequence (P55899 24-297 limits assumed, form in doubt, chain 1 of 2): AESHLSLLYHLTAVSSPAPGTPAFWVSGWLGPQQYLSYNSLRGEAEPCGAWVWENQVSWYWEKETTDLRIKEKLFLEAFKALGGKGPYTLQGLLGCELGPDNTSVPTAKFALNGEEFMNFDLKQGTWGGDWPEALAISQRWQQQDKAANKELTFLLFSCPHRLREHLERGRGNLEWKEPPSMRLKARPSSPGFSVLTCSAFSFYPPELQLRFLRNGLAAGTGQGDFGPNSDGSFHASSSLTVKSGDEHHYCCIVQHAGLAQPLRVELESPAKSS
T5 sequence (P61769 21-119 limits assumed, form in doubt, chain 2 of 2): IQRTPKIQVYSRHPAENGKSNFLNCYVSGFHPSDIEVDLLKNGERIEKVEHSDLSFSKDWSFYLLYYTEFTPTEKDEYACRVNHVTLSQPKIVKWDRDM

B1: NKp46-3 IgG1 (antibody, V domains shown)
VH: EVQLQQSGPELVKPGASVKISCKTSGYTFTEYTMHWVKQSHGKSLEWIGGISPNIGGTSYNQKFKGKATLTVDKSSSTAYMELRSLTSEDSAVYYCARRGGSFDYWGQGTTLTVSS
VL: DIVMTQSPATLSVTPGDRVSLSCRASQSISDYLHWYQQKSHESPRLLIKYASQSISGIPSRFSGSGSGSDFTLSINSVEPEDVGVYYCQNGHSFPLTFGAGTKLELK
notes: Chimeric full-length human IgG1; also called NKp46-3 antibody as a full-length human IgG1
For the molecule B1, in assay [1], the binding result is reported as “binds”. The binding result in assay [2] is “binds”. The binding result in assay [3] was “binds”. Moreover, in assay [4], the Kd stood at 20 nM, the koff worked out at 0.00433 s⁻¹ and the kon turned out to be 222000 M⁻¹ s⁻¹.

B2: CD19-F5-NKp46-3 (bispecific antibody, human IgG1, kappa)
chain 1: not shown
chain 2: not shown
chain 3: DIVMTQSPATLSVTPGDRVSLSCRASQSISDYLHWYQQKSHESPRLLIKYASQSISGIPSRFSGSGSGSDFTLSINSVEPEDVGVYYCQNGHSFPLTFGAGTKLELKASTKGPSVFPLAPSSKSTSGGTAALGCLVKDYFPEPVTVSWNSGALTSGVHTFPAVLQSSGLYSLSSVVTVPSSSLGTQTYICNVNHKPSNTKVDKRVEPKSCDKTH
notes: Heterotrimer with dimeric Fc: first (170), second (169) and third (171) chain
In assay [5], B2 came in with a dissociation constant Kd of 2.6 nM. Also, in assay [6], the Kd is 67 nM, the koff turned out to be 0.0051 s⁻¹ and the on-rate (kon) amounted to 75600 M⁻¹ s⁻¹.

B3: CD19-F11-NKp46-3 (bispecific antibody)
chain 1: DIQLTQSPASLAVSLGQRATISCKASQSVDYDGDSYLNWYQQIPGQPPKLLIYDASNLVSGIPPRFSGSGSGTDFTLNIHPVEKVDAATYHCQQSTEDPWTFGGGTKLEIKGGGGSGGGGSGGGGSQVQLQQSGAELVRPGSSVKISCKASGYAFSSYWMNWVKQRPGQGLEWIGQIWPGDGDTNYNGKFKGKATLTADESSSTAYMQLSSLASEDSAVYFCARRETTTVGRYYYAMDYWGQGTTVTVSSGGGSSAPELLGGPSVFLFPPKPKDTLMISRTPEVTCVVVDVSHEDPEVKFNWYVDGVEVHNAKTKPREEQYSSTYRVVSVLTVLHQDWLNGKEYKCKVSNKALPAPIEKTISKAKGQPREPQVYTLPPSREEMTKNQVSLTCLVKGFYPSDIAVEWESNGQPENNYKTTPPVLDSDGSFFLYSKLTVDKSRWQQGNVFSCSVMHEALHNHYTQKSLSLSPGGGGGSGGGGSGGGGSGQPREPQVYTLPPSREEMTKNQVSLTCLVKGFYPSDIAVEWESNGQPENNYKTTPPVLDSDGSFFLYSKLTVDKSRWQQGNVFSCSVMHEALHNHYTQKSLSLSPGSTGSEVQLQQSGPELVKPGASVKISCKTSGYTFTEYTMHWVKQSHGKSLEWIGGISPNIGGTSYNQKFKGKATLTVDKSSSTAYMELRSLTSEDSAVYYCARRGGSFDYWGQGTTLTVSSRTVAAPSVFIFPPSDEQLKSGTASVVCLLNNFYPREAKVQWKVDNALQSGNSQESVTEQDSKDSTYSLSSTLTLSKADYEKHKVYACEVTHQGLSSPVTKSFNRGEC
chain 2: DIVMTQSPATLSVTPGDRVSLSCRASQSISDYLHWYQQKSHESPRLLIKYASQSISGIPSRFSGSGSGSDFTLSINSVEPEDVGVYYCQNGHSFPLTFGAGTKLELKASTKGPSVFPLAPSSKSTSGGTAALGCLVKDYFPEPVTVSWNSGALTSGVHTFPAVLQSSGLYSLSSVVTVPSSSLGTQTYICNVNHKPSNTKVDKRVEPKSCDKTH
notes: Heterodimer; also called CD19-F11A-NKp46-3
Molecule B3 came in with a dissociation constant (Kd) in assay [7] of 596 nM. Further, in assay [6], the Kd was 30 nM, the koff is 0.0104 s⁻¹ and the kon was determined as 339000 M⁻¹ s⁻¹.

B4: CD19-F6-NKp46-3 (bispecific antibody, human IgG1, kappa)
chain 1: not shown
chain 2: not shown
chain 3: DIVMTQSPATLSVTPGDRVSLSCRASQSISDYLHWYQQKSHESPRLLIKYASQSISGIPSRFSGSGSGSDFTLSINSVEPEDVGVYYCQNGHSFPLTFGAGTKLELKASTKGPSVFPLAPSSKSTSGGTAALGCLVKDYFPEPVTVSWNSGALTSGVHTFPAVLQSSGLYSLSSVVTVPSSSLGTQTYICNVNHKPSNTKVDKRVEPKSCDKTH
notes: As F5 but with N297S: first (173), second (172) and third (174) chain
In turn, B4 came in with a Kd in [5] of 6 nM. In addition, in assay [6], the Kd amounted to 63 nM, the koff was 0.00503 s⁻¹ and the kon was 79300 M⁻¹ s⁻¹.

B5: NKp46-2 (antibody, human IgG1, V domains shown)
VH: EVQLQESGPGLVKPSQSLSLTCTVTGYSITSDYAWNWIRQFPGNKLEWMGYITYSGSTSYNPSLESRISITRDTSTNQFFLQLNSVTTEDTATYYCARGGYYGSSWGVFAYWGQGTLVTVSA
VL: DIQMTQSPASLSASVGETVTITCRVSENIYSYLAWYQQKQGKSPQLLVYNAKTLAEGVPSRFSGSGSGTQFSLKINSLQPEDFGSYYCQHHYGTPWTFGGGTKLEIK
notes: also called parental human IgG1 chimeric antibody NKp46-2
Consider B5, for which the binding result in assay [8], in assay [2], in assay [3], in assay [9] and in assay [10] was “binds” each time.

What is called Kd is the concentration at which binding is half-saturated. The koff is a measure of how fast the partners let go of each other. In general, kon refers to the second-order rate constant of association.
